Measured values taken from the supplement of paper PMC5998384.

Tests used:
HeLa Kyoto [1] = experiment: solubility in G1/S (NP-40 vs SDS abundance) (log2 ratio); higher = more soluble; conditions: cell cycle stage: G1/S
HeLa Kyoto [2] = experiment: thermal stability score vs G1/S (z-score of summed log2 fold changes over temperatures); higher = more thermally stable than in G1/S
HeLa Kyoto [3] = experiment: melting temperature (median over replicates), in situ; higher = more thermally stable
HeLa Kyoto [4] = experiment: solubility change mitosis vs G1/S (difference of NP-40 vs SDS log2 ratios) (log2 ratio difference); higher = more soluble in mitosis
[5] = cell cycle stage: early G1 (4.5 h after nocodazole release)
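Wherever melting temperature (median over replicates), in situ is given: HeLa Kyoto cells synchronized by double thymidine or nocodazole block, proteins quantified by TMT10plex mass spectrometry, three independent biological replicates.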
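Wherever solubility change mitosis vs G1/S (difference of NP-40 vs SDS log2 ratios) is given: synchronized HeLa Kyoto cells (double thymidine block for G1/S, nocodazole release for mitosis), protein amounts in NP-40 versus SDS lysates quantified by mass spectrometry, three biological replicates.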
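Wherever solubility in G1/S (NP-40 vs SDS abundance) is given: HeLa Kyoto cells arrested at G1/S by double thymidine block, proteins quantified by TMT10plex mass spectrometry in mild NP-40 versus SDS extracts, three biological replicates.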
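Wherever thermal stability score vs G1/S (z-score of summed log2 fold changes over temperatures) is given: synchronized HeLa Kyoto cells, proteins quantified by TMT10plex mass spectrometry, three biological replicates, mitosis taken 0.5 h after nocodazole release, G1/S directly after double thymidine block.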

Substance | solubility in G1/S (log2) (HeLa Kyoto [1]) | thermal stability score (HeLa Kyoto [2]; [5]) | thermal stability score (HeLa Kyoto [2]; cell cycle stage: mitosis) | melting temperature (HeLa Kyoto [3]; cell cycle stage: G1/S) | melting temperature (HeLa Kyoto [3]; cell cycle stage: mitosis) | solubility change mitosis (log2) (HeLa Kyoto [4])
MWRCGGRQGLCVLRRLSGGHAHHRAWRWNSNRACERALQYKLGDKIHGFTVNQVTSVPELFLTAVKLTHDDTGARYLHLAREDTNNLFSVQFRTTPMDSTGVPHILEHTVLCGSQKYPCRDPFFKMLNRSLSTFMNAFTASDYTLYPFSTQNPKDFQNLLSVYLDATFFPCLRELDFWQEGWRLEHENPSDPQTPLVFKGVVFNEMKGAFTDNERIFSQHLQNRLLPDHTYSVVSGGDPLCIPELTWEQLKQFHATHYHPSNARFFTYGNFPLEQHLKQIHEEALSKFQKIEPSTVVPAQTPWDKPREFQITCGPDSFATDPSKQTTISVSFLLPDITDTFEAFTLSLLSSLLTSGPNSPFYKALIESGLGTDFSPDVGYNGYTREAYFSVGLQGIAEKDIETVRSLIDRTIDEVVEKGFEDDRIEALLHKIEIQMKHQSTSFGLMLTSYIASCWNHDGDPVELLKLGNQLAKFRQCLQENPKFLQEKVKQYFKNNQHKLTLSMRPDDKYHEKQAQVEATKLKQKVEALSPGDRQQIYEKGLELRSQQSKPQDASCLPALKVSDIEPTIPVTELDVVLTAGDIPVQYCAQPTNGMVYFRAFSSLNTLPEELRPYVPLFCSVLTKLGCGLLDYREQAQQIELKTGGMSASPHVLPDDSHMDTYEQGVLFSSLCLDRNLPDMMQLWSEIFNNPCFEEEEHFKVLVKMTAQELANGIPDSGHLYASIRAGRTLTPAGDLQETFSGMDQVRLMKRIAEMTDIKPILRKLPRIKKHLLNGDNMRCSVNATPQQMPQTEKAVEDFLRSIGRSKKERRPVRPHTVEKPVPSSSGGDAHVPHGSQVIRKLVMEPTFKPWQMKTHFLMPFPVNYVGECIRTVPYTDPDHASLKILARLMTAKFLHTEIREKGGAYGGGAKLSHNGIFTLYSYRDPNTIETLQSFGKAVDWAKSGKFTQQDIDEAKLSVFSTVDAPVAPSDKGMDHFLYGLSDEMKQAHREQLFAVSHDKLLAVSDRYLGTGKSTHGLAILGPENPKIAKDPSWIIQ [PITRM1] | 0.143 | 0.343 | -0.944 | 51.4 °C | 50.9 °C | -0.084
MWRLRRAAVACEVCQSLVKHSSGIKGSLPLQKLHLVSRSIYHSHHPTLKLQRPQLRTSFQQFSSLTNLPLRKLKFSPIKYGYQPRRNFWPARLATRLLKLRYLILGSAVGGGYTAKKTFDQWKDMIPDLSEYKWIVPDIVWEIDEYIDFEKIRKALPSSEDLVKLAPDFDKIVESLSLLKDFFTSGSPEETAFRATDRGSESDKHFRKVSDKEKIDQLQEELLHTQLKYQRILERLEKENKELRKLVLQKDDKGIHHRKLKKSLIDMYSEVLDVLSDYDASYNTQDHLPRVVVVGDQSAGKTSVLEMIAQARIFPRGSGEMMTRSPVKVTLSEGPHHVALFKDSSREFDLTKEEDLAALRHEIELRMRKNVKEGCTVSPETISLNVKGPGLQRMVLVDLPGVINTVTSGMAPDTKETIFSISKAYMQNPNAIILCIQDGSVDAERSIVTDLVSQMDPHGRRTIFVLTKVDLAEKNVASPSRIQQIIEGKLFPMKALGYFAVVTGKGNSSESIEAIREYEEEFFQNSKLLKTSMLKAHQVTTRNLSLAVSDCFWKMVRESVEQQADSFKATRFNLETEWKNNYPRLRELDRNELFEKAKNEILDEVISLSQVTPKHWEEILQQSLWERVSTHVIENIYLPAAQTMNSGTFNTTVDIKLKQWTDKQLPNKAVEVAWETLQEEFSRFMTEPKGKEHDDIFDKLKEAVKEESIKRHKWNDFAEDSLRVIQHNALEDRSISDKQQWDAAIYFMEEALQARLKDTENAIENMVGPDWKKRWLYWKNRTQEQCVHNETKNELEKMLKCNEEHPAYLASDEITTVRKNLESRGVEVDPSLIKDTWHQVYRRHFLKTALNHCNLCRRGFYYYQRHFVDSELECNDVVLFWRIQRMLAITANTLRQQLTNTEVRRLEKNVKEVLEDFAEDGEKKIKLLTGKRVQLAEDLKKVREIQEKLDAFIEALHQEK [OPA1] | -0.149 | 1.61 | 0.517 | 51.3 °C | 51 °C | -0.0649
MWRLVPPKLGRLSRSLKLAALGSLLVLMVLHSPSLLASWQRNELTDRRFLQLNKCPACFGTSWCRRFLNGQVVFEAWGRLRLLDFLNVKNVYFAQYGEPREGGRRRVVLKRLGSQRELAQLDQSICKRATGRPRCDLLQAMPRTEFARLNGDVRLLTPEAVEGWSDLVHCPSQRLLDRLVRRYAETKDSGSFLLRNLKDSERMQLLLTLAFNPEPLVLQSFPSDEGWPFAKYLGACGRMVAVNYVGEELWSYFNAPWEKRVDLAWQLMEIAEQLTNNDFEFALYLLDVSFDNFAVGPRDGKVIIVDAENVLVADKRLIRQNKPENWDVWYESKFDDCDKEACLSFSKEILCARATVDHNYYAVCQNLLSRHATWRGTSGGLLHDPPSEIAKDGRLEALLDECANPKKRYGRFQAAKELREYLAQLSNNVR [C3ORF58] | 0.0343 | -0.149 | -0.787 | 53 °C | 52.3 °C | -0.109
MWRRKHPRTSGGTRGVLSGNRGVEYGSGRGHLGTFEGRWRKLPKMPEAVGTDPSTSRKMAELEEVTLDGKPLQALRVTDLKAALEQRGLAKSGQKSALVKRLKGALMLENLQKHSTPHAAFQPNSQIGEEMSQNSFIKQYLEKQQELLRQRLEREAREAAELEEASAESEDEMIHPEGVASLLPPDFQSSLERPELELSRHSPRKSSSISEEKGDSDDEKPRKGERRSSRVRQARAAKLSEGSQPAEEEEDQETPSRNLRVRADRNLKTEEEEEEEEEEEEDDEEEEGDDEGQKSREAPILKEFKEEGEEIPRVKPEEMMDERPKTRSQEQEVLERGGRFTRSQEEARKSHLARQQQEKEMKTTSPLEEEEREIKSSQGLKEKSKSPSPPRLTEDRKKASLVALPEQTASEEETPPPLLTKEASSPPPHPQLHSEEEIEPMEGPAPAVLIQLSPPNTDADTRELLVSQHTVQLVGGLSPLSSPSDTKAESPAEKVPEESVLPLVQKSTLADYSAQKDLEPESDRSAQPLPLKIEELALAKGITEECLKQPSLEQKEGRRASHTLLPSHRLKQSADSSSSRSSSSSSSSSRSRSRSPDSSGSRSHSPLRSKQRDVAQARTHANPRGRPKMGSRSTSESRSRSRSRSRSASSNSRKSLSPGVSRDSSTSYTETKDPSSGQEVATPPVPQLQVCEPKERTSTSSSSVQARRLSQPESAEKHVTQRLQPERGSPKKCEAEEAEPPAATQPQTSETQTSHLPESERIHHTVEEKEEVTMDTSENRPENDVPEPPMPIADQVSNDDRPEGSVEDEEKKESSLPKSFKRKISVVSATKGVPAGNSDTEGGQPGRKRRWGASTATTQKKPSISITTESLKSLIPDIKPLAGQEAVVDLHADDSRISEDETERNGDDGTHDKGLKICRTVTQVVPAEGQENGQREEEEEEKEPEAEPPVPPQVSVEVALPPPAEHEVKKVTLGDTLTRRSISQQKSGVSITIDDPVRTAQVPSPPRGKISNIVHISNLVRPFTLGQLKELLGRTGTLVEEAFWIDKIKSHCFVTYSTVEEAVATRTALHGVKWPQSNPKFLCADYAEQDELDYHRGLLVDRPSETKTEEQGIPRPLHPPPPPPVQPPQHPRAEQREQERAVREQWAEREREMERRERTRSEREWDRDKVREGPRSRSRSRDRRRKERAKSKEKKSEKKEKAQEEPPAKLLDDLFRKTKAAPCIYWLPLTDSQIVQKEAERAERAKEREKRRKEQEEEEQKEREKEAERERNRQLEREKRREHSRERDRERERERERDRGDRDRDRERDRERGRERDRRDTKRHSRSRSRSTPVRDRGGRR [ACIN1] | -1.35 | -3.76 | -1.15 | 49.6 °C | 50.8 °C | 0.887
MWTLVSWVALTAGLVAGTRCPDGQFCPVACCLDPGGASYSCCRPLLDKWPTTLSRHLGGPCQVDAHCSAGHSCIFTVSGTSSCCPFPEAVACGDGHHCCPRGFHCSADGRSCFQRSGNNSVGAIQCPDSQFECPDFSTCCVMVDGSWGCCPMPQASCCEDRVHCCPHGAFCDLVHTRCITPTGTHPLAKKLPAQRTNRAVALSSSVMCPDARSRCPDGSTCCELPSGKYGCCPMPNATCCSDHLHCCPQDTVCDLIQSKCLSKENATTDLLTKLPAHTVGDVKCDMEVSCPDGYTCCRLQSGAWGCCPFTQAVCCEDHIHCCPAGFTCDTQKGTCEQGPHQVPWMEKAPAHLSLPDPQALKRDVPCDNVSSCPSSDTCCQLTSGEWGCCPIPEAVCCSDHQHCCPQGYTCVAEGQCQRGSEIVAGLEKMPARRASLSHPRDIGCDQHTSCPVGQTCCPSLGGSWACCQLPHAVCCEDRQHCCPAGYTCNVKARSCEKEVVSAQPATFLARSPHVGVKDVECGEGHFCHDNQTCCRDNRQGWACCPYRQGVCCADRRHCCPAGFRCAARGTKCLRREAPRWDAPLRDPALRQLL [GRN] | 0.135 | -2.57 | -3.69 | 54.9 °C | 60.5 °C | -0.134
MYATDSRGHSPAFLQPQNGNSRHPSGYVPGKVVPLRPPPPPKSQASAKFTSIRREDRATFAFSPEEQQAQRESQKQKRHKNTFICFAITSFSFFIALAIILGISSKYAPDENCPDQNPRLRNWDPGQDSAKQVVIKEGDMLRLTSDATVHSIVIQDGGLLVFGDNKDGSRNITLRTHYILIQDGGALHIGAEKCRYKSKATITLYGKSDEGESMPTFGKKFIGVEAGGTLELHGARKASWTLLARTLNSSGLPFGSYTFEKDFSRGLNVRVIDQDTAKILESERFDTHEYRNESRRLQEFLRFQDPGRIVAIAVGDSAAKSLLQGTIQMIQERLGSELIQGLGYRQAWALVGVIDGGSTSCNESVRNYENHSSGGKALAQREFYTVDGQKFSVTAYSEWIEGVSLSGFRVEVVDGVKLNLLDDVSSWKPGDQIVVASTDYSMYQAEEFTLLPCSECSHFQVKVKETPQFLHMGEIIDGVDMRAEVGILTRNIVIQGEVEDSCYAENQCQFFDYDTFGGHIMIMKNFTSVHLSYVELKHMGQQQMGRYPVHFHLCGDVDYKGGYRHATFVDGLSIHHSFSRCITVHGTNGLLIKDTIGFDTLGHCFFLEDGIEQRNTLFHNLGLLTKPGTLLPTDRNNSMCTTMRDKVFGNYIPVPATDCMAVSTFWIAHPNNNLINNAAAGSQDAGIWYLFHKEPTGESSGLQLLAKPELTPLGIFYNNRVHSNFKAGLFIDKGVKTTNSSAADPREYLCLDNSARFRPHQDANPEKPRVAALIDRLIAFKNNDNGAWVRGGDIIVQNSAFADNGIGLTFASDGSFPSDEGSSQEVSESLFVGESRNYGFQGGQNKYVGTGGIDQKPRTLPRNRTFPIRGFQIYDGPIHLTRSTFKKYVPTPDRYSSAIGFLMKNSWQITPRNNISLVKFGPHVSLNVFFGKPGPWFEDCEMDGDKNSIFHDIDGSVTGYKDAYVGRMDNYLIRHPSCVNVSKWNAVICSGTYAQVYVQTWSTQNLSMTITRDEYPSNPMVLRGINQKAAFPQYQPVVMLEKGYTIHWNGPAPRTTFLYLVNFNKNDWIRVGLCYPSNTSFQVTFGYLQRQNGSLSKIEEYEPVHSLEELQRKQSERKFYFDSSTGLLFLYLKAKSHRHGHSYCSSQGCERVKIQAATDSKDISNCMAKAYPQYYRKPSVVKRMPAMLTGLCQGCGTRQVVFTSDPHKSYLPVQFQSPDKAETQRGDPSVISVNGTDFTFRSAGVLLLVVDPCSVPFRLTEKTVFPLADVSRIEEYLKTGIPPRSIVLLSTRGEIKQLNISHLLVPLGLAKPAHLYDKGSTIFLGFSGNFKPSWTKLFTSPAGQGLGVLEQFIPLQLDEYGCPRATTVRRRDLELLKQASKAH [TMEM2] | 0.114 | -1.5 | -0.419 | 55.3 °C | 55.5 °C | -0.018
MYCBP2 | -0.39 | -0.686 | -0.306 | 51.4 °C | 50.8 °C | 0.0594
